B1: Syndecan-4 (Rattus norvegicus (Rat)), P34901 (parent)
chain: MAPVCLFAPLLLLLLGGFPVAPGESIRETEVIDPQDLLEGRYFSGALPDDEDAGGLEQDSDFELSGSGDLDDTEEPRTFPEVISPLVPLDNHIPENAQPGIRVPSEPKELEENEVIPKRVPSDVGDDDVSNKVSMSSTSQGSNIFERTEVLAALIVGGVVGILFAVFLILLLVYRMKKKDEGSYDLGKKPIYKKAPTNEFYA

Variants of: B1
Details: with kpca_human PRKCA

effect of a mutation on the interaction	Variant
disrupting interaction	MAPVCLFAPLLLLLLGGFPVAPGESIRETEVIDPQDLLEGRYFSGALPDDEDAGGLEQDSDFELSGSGDLDDTEEPRTFPEVISPLVPLDNHIPENAQPGIRVPSEPKELEENEVIPKRVPSDVGDDDVSNKVSMSSTSQGSNIFERTEVLAALIVGGVVGILFAVFLILLLVYRMKKKDEGSYDLGKKPIFKKAPTNEFYA [Y192F]
